According to patent KR20200067522A (dated 2020):

Assays:
CRM 197 의 A 단편(21kDa) = biological target: T1, CRM 197 의 A 단편(21kDa) (Corynebacterium diphtheriae C7 (β197) …, UniProt P00588 33-225); assay: western blot of trypsin/DTT-cleaved CRM197
T1 construct: domain: A 단편(21kDa); Band on a reducing SDS-PAGE / western blot after trypsin digestion

[1] = biological target: T2, CRM 197 (Cross-reactive material 197) (Corynebacterium diphtheriae C7 (β197) …, UniProt P00588 33-567); assay: BLI (Octet Red), CRM197 in two-fold dilutions of 50 to 3.13 nM
T2 construct: mature; Purified to more than 95% purity from the fermentation supernatant

B1: 단일클론항체 3F9 (인간 IgG로 전환) (antibody, V domains shown)
VH: EVQLVESGGGLVQPGGSLRLSCAASGFTFSDYAMSWVRQAPGKGLEWVSAISSSSGNKYYADSVKGRFTISRDNSKNTLYLQMNSLRAEDTAVYYCAKLGVRETLSWYFDLWGQGTLVTVSS
VL: DIQMTQSPSSLSASVGDRVTITCRASQSISNYLNWYQQKPGKAPKLLIYAASRLQSGVPSRFSGSGSGTDFTLTISSLQPEDFATYYCQQSYSFPWTFGQGTKVEIK
notes: Human IgG made from a Fab of a human synthetic Fab library; kappa light chain is only implied by the anti-human kappa ELISA
CRM 197 의 A 단편(21kDa)
  binding result: no binding
[1]
  Kd: 4.45 nM
